Data taken from the DeepSol protein solubility set.

Experiment: soluble on expression in E. coli; label from the status in PepcDB or PDB records

Sequence	soluble on expression in E. coli
MGSDKIHHHHHHMNQRMKSHFQYSTLENIPKAFDILKDPPKKLYCVGDTKLLDTPLKVAIIGTRRPTPYSKQHTITLARELAKNGAVIVSGGALGVDIIAQENALPKTIMLSPCSLDFIYPTNNHKVIQEIAQNGLILSEYEKDFMPIKGSFLARNRLVIALSDVVIIPQADLKSGSMSSARLAQKYQKPLFVLPQRLNESDGTNELLEKGQAQGIFNIQNFINTLLKDYHLKEMPEMEDEFLEYCAKNPSYEEAYLKFGDKLLEYELLGKIKRINHIVVLA	not soluble
GMMNKPAPRELEVIRSTYITPHMLRITLGGAGLAGFPADQESAYIKLLFPQAGERPLMRTYTIRQQRDDEIDVDFVLHDTDGPASSWAKTAQVGELIQIGGPGLKKLINFEADWFLLAGDMTALPAISVNLAKLPNNAVGYAVIEVLSEADIQPLVHPEHVELHWVINPEADPEGRPLVERIAQLPWLAGEPAVWIACEFNSMRALRRHFKQAHALPKSHFYTSSYWKIGCNEGEHKLVKQEDEQLENGASV	soluble
GISPNVLNNMKSYMKHSNIRNIIINIMAHELSVINNHIKYINELFYKLDTNHNGSLSHREIYTVLASVGIKKWDINRILQALDINDRGNITYTEFMAGCYRWKNIESTFLKAAFNKIDKDEDGYISKSDIVSLVHDKVLDNNDIDNFFLSVHSIKKGIPREHIINKISFQEFKDYMLSTF	soluble
MMKQSFLANERIYLRAVEPEDLDLMYEMENDPSMWDISSFTVPYSRFVLKQYIEGSQSDMFADKQLRLMIMRRKDNCTLGTVDITDFVPLHSRGAVGIAVHSNYRQEGYASDALKLLCEYAFNFLFIKQLYAHIAVDNEPSLRLFNSCGFTQCGVLKEWLLTHEGYKDAVLVQCMNPKR	not soluble
MSRVCQVTGKRVQTGNNVSHANNKTRRRFLPNLHKRRFWVASENRWVKLRVSTCAVRTIDKNGIDAVLAELRASGEKVLEHHHHHH	not soluble
MSLGFSRQAFYKRHLNDLARHEEDVLCSSIIQYCWHLRQAEHLPQAGFRELMVLCQQYFGPKFTLGRDRFCALLRRHGMMLRKRSVRPRTTNSRHRLYKYEDLLNTEPKFVPQRPGELLVADITYVAYQDGFAYLSLLTDAYSRCIVGYCLHPTLEVEGCLNALHQAFAFYDQHQIDTTNMIHHSDRGIQYAGKSYTDLLHGRGWRISMTQTGDPLHNALAERMNNTLKNSWHISSSKQSFDQALLSVDRAVRMYNEARPHQALRAKTPMQVITPESEGHHHHHH	soluble
MGSDKIHHHHHHMSPKTALNLFSLLWQNYSARVPYARTYEQMITAAGGTVANDHIAFRSLRLLVDSPRGKVNLGINYLSQIAEALGYEPAGEYNFPQTHLYARHYRHPQQIEFDLPKLFISELIVDELPDNIIQLITQTVSTVADEFTSPLTYFSPAEGNDGVIAQQLQKFFTRPWMTPRRSVVEAVNQVTQYGAWVLLHGYAVNHFTGYVNRHQTPEYADIDDTARGLANLGVPMKAEIEGDVTWGLRQTATQAVKEMVTVIDDISGQEVEIPWTYAYYEIAQRYPLQVEPGKEKLFDGFLGNNAQQLFEMTRLVECDAAKIGK	not soluble
MSILKNAGEPVISMRYIPYNGGAVKETWWDRDSDRKRLLISLGTVKPMVDGLELISWVMDSANEVDADIILQLAINARTGLRKLPSNVRLVDWIPMGVFLNGADGFIHHGGAGNTLTALYSGIPQIVFGEGADRSVNAEIVAKRGCGIIPDKHGLTSDLVNRLLYDDSLRFCSDQVAAEMAEQPSPAEIAEVLMRKLKNNGKQL	not soluble
MPRKAREYPEEGEFVVATVKRIHNYGAFLELDEYPGKEAFMHISEVASTWVRNIRDYLKEGQKVVAKVIRVDPRKGHIDLSLRRVTQQQRKAKLQEFKRAQKAENLLRLAAEKLGKDFEAAWREVWVPLEEEWGEVYAAFEDAAKDGIEVLKGHVPDEWLPVLKEIVENYVEVPTVTIDAEFEITVPKPNGVEIIKEALIRARDRANKEKDIEVKFTYQGAPRYRIDITAPDYYKAEEVLEDIAEEILRVIKQAGGEATLLRKEKRIRKVKKRKK	soluble
MPVSLLKAHEAEMWEVHFHPSNPDHLFTCSEDGSLWHWDASTNAPEKSSLFHQGGRSSTFLSHSLSNQAGVHQSLVSSWLSTDPAKDRIEITSLLPSRTLSVNSLDVLGPCLVCGTDAEAIYVTRQLFS	not soluble
TRGGDSAAAPLDPPKSTATRCLSCNKKVGVTGFKCRCGSTFCGTHRYPESHECQFDFKGVA	soluble
MADMKNKYDVKRIIPDELSESLDIFLKNYSETGLSDYNTYLFYGFILKSYKLPRENRYSIKLLVKELQNRGLKVTLIINIYYHALNCLALNDGLKIYGEDFLI	not soluble
MSIVTVQLGQCGNQIGFEVFDALFRDSHCSQGLCSKRDNEAYQASCRERFFREEENGVPVARAVLVDMEPKVINQTLSKAAQSGRWNYGQHTSFCQKQGSGNNWAYGYSVHGPKHEESIMNLIQTEVEKCDSLSGFFIIMSMAGGTGSGLGAFVTQKLQDQYSSSLKMNQIIWPYGTGEVIVQNYNSILTLSHLYRSSDALLIHENDAVHKICAKRMNIKQISFRDLNQVLAHQLGSVFQPTYSEDSSFHYRRNPLGDLMEHLVPHPEFKMLGVRNIPQMSAASLAYSAFTWAGLLKHLRQMLISSAKMEEGINWQVRPPLTGLPPIGKASAHKEHHFNTSLANLVVLRGREVHSADVEGFKDPALYTSWLEPVDAFSVWKTQRAFDKYEKSAALVSNSQLLVKPLDMIVGKAWNMFSSKAFIHQYTKFGMEEEDFLDSFALLEQVVASYGSLGP	not soluble
MAHHHHHHMTSTVTAVNQTQSLAAIRNFVRASVSCITYARGLCSDNAYEQRPFLGLPLRQLIPSTTESITISEWIEKGAFDALNRNYLKEMSLCVYDAACHELLESYCFGFNYTGDGERAQMTLNASQTIADGSKTTAVSQSSGGAVGIPAYRKRRCTKQEVQHLLTSILERLMDVVESLPPLLSERVLTMRLTYYDAVTPASYEPPCFAPASEHMARLYQAEVKHHVNIGSMDTSHHLFSVAIRHPLLQQIHRQMTGRTTSAVATKTGGSPLSAGKIAAVSTPSDPLRSGWESSFSSDPAVASAVAAAGATVTHGVVASHASCGLLLCADGEGAAFDAENAGEEKAAGSSLGEVGGGGACTARTGETLRPCEVAKLDGVYRLMEKSTSGDERRLLRPAELTYLLFAAFVFTKAPSARGGRGELKADEVEAYRALRCPFDVSAKTVLLVLQRLSREDFLQPCNARGAPAPKMPKAEEGSRPTPAIRAWLVPDPPASLLQQLMQVDAVTELLTHESHLVLQELSVYLAREEWRRAPRTMTAKATSGRISTTGGSGKRRSSR	soluble
MNIVLMGLPGAGKGTQAEQIIEKYEIPHISTGDMFRAAIKNGTELGLKAKSFMDQGNLVPDEVTIGIVHERLSKDDCQKGFLLDGFPRTVAQADALDSLLTDLGKKLDYVLNIKVEQEELMKRLTGRWICKTCGATYHTIFNPPAVEGICDKDGGELYQRIDDKPETVKNRLDVNMKQTQPLLDFYSQKGVLKDIDGQQDIKKVFVDINDLLGGLR	soluble
MGHHHHHHGGHMSLIISSLTNPNFKVGLPKVIAEVCDYLNTLDLNALENGRHDINDQIYMNVMEPETAEPSSKKAELHHEYLDVQVLIRGTENIEVGATYPNLSKYEDYNEADDYQLCADIDDKFTVTMKPKMFAVFYPYEPHKPCCVVNGKTEKIKKLVVKVPVKLIEGGS	soluble
MDEDVLPGEVLAIEGIFMACGLNEPEYLYHPLLSPIKLYITGLMRDKESLFEAMLANVRFHSTTGIDQLGLSMLQVSGDGNMNWGRALAILTFGSFVAQKLSNEPHLRDFALAVLPAYAYEAIGPQWFRARGGWRGLKAYCTQVLTDDDDLEHHHHHH	soluble
AHHHHHHGSIVPALIGSLPRPIGLAKKLEQYYIGRLDERKLEEAYREYTRRAFEKLRDAKIKVITDGLYRWDDIFNPFIRFIDGIEVNGLFKFYENNFFYRSPVVRGEIALKENPIPEWISIAQEIKEDVYPEATLKAVLPGPVTLAYHSINEYYKTLTDLAEAYAQVIGELIKELDVKIVELQEPSLAAEISEATKNIEDRVDKEVAKNIIEDLGRIKKLWVVTYFGTPQVLPEGVILNVDLIEGSVPEEYSGEIGLGIVDARTTKMERADRLRDKIRKYLAKFETIYVTPNTLLDFLPESVAWKKLRLLGRLGGE	not soluble
MSSGVPVLHWNFGIGPITCHAWNKDRTQIAVSASSNDIHIFEWRNGDWQSIHTLSEHDLPVTGLDWGTKTNRIVSCSQDKNAFVWTFDKNVWKPELVLVRFNRAATYVKWSPLENKFAVGSGAKLVSVCYYEKENDWWVSKQIKKPIRSTVTCLDWHSNNVLLAVGSCDFKCRVFSAYVKEVDEKPSPNPWGQKMPFGQLMSEYSVGGWVHRVAFSPSGCRLAFVSHDSSVSFVDSTVDSQKVQNLLTIHLPFTTVEWITENSVVTAGHDCSPVLFVVSQDVLKEVCKLDVPSAAKSSTVNSALQLFKNIDRNNAAEKINVALKTLHQNRITQILPHSGTVGNVVKFTTCGTDGIVALWDLKNHPSLV	not soluble
MGSDKIHHHHHHMVAITSCSDDSDGIPGWPWNDNSTEGPENPDVTEIKPRYVWIDAAANFPDYANNKENISTDMVKVKNAGFTDIIVDVRPTTGDVLFNTTAVDQVKRMDVWGSSGYVYYERTETWDYLQAFIDAARSQGLKVHASVNTFVGGYLCPYNLGSDGILFRDDSKKEWASVANLADGLTNTMDLLNDETDYGAKFLNPANDDVQNFVLQLLGDLAKYDLDGIILDRCRYDDYGLESDFSAVSKQKFEEYIGETVAHFPEDIMAPGTDEIPSDQPAYFKKWLEFRVKVIHDFIVKAREKVKSVNSEINFGVYVGAWYSSYYTSGVNWASPKYDTSAYYPKWATADYKNYGYADHLDYIFLGAYASVDKIYGSGEWTMEGFCKNGRELLKGDVPFSGGPDIGNGTGWTNGGQAAKIPDAIDACINNSDGFFAFDLCHIKMYDYWNAFKTGFDNYLESVQK	not soluble
MAASASGKSKTSAGANRRRNRPSPRQRLLDSATNLFTTEGIRVIGIDRILREADVAKASLYSLFGSKDALVIAYLENLDQLWREAWRERTVGMKDPEDKIIAFFDQCIEEEPEKDFRGSHFQNAASEYPRPETDSEKGIVAAVLEHREWCHKTLTDLLTEKNGYPGTTQANQLLVFLDGGLAGSRLVHNISPLETARDLARQLLSAPPADYSI	soluble
MGSDKIHHHHHHVAVKAYLKRELRNLQSLAPAVRTAKFSLYNFGTRSAGLFVEPEFKLLAHLRPVKLAIDIGGNWGQSVLALQRYAAPERIVTFEPNPELYRRLSARFRSDPSIQVENVGLGDAAGQFDLHIPLYRNFVYDGLASLNKDEAAQWLNPRTMARFDPSKLTIQSHTVRVVKLDDYNLVPDIIKIDVQGLEDAVARGGIKTIDRAKPAMIVEAPSASFVQMMADCGLRPYTWNGTRLVDAADGSNVMFLSDEKLRKLVKVRPKPEKPE	not soluble
AKYYNEPCHTFNEYLLIPGLSTVDCIPSNVNLSTPLVKFQKGQQSEINLKIPLVSAIMQSVSGEKMAIALAREGGISFIFGSQSIESQAAMVHAVKNFKDSQKRYLVGAGINTRDFRERVPALVEAGADVLCIDSSDGFSEWQKITIGWIRDKYGDKVKVGAGNIVDGEGFRYLADAGADFIKIGIGGGSICITREQKGIGRGQATAVIDVVAERNKYFEETGIYIPVCSDGGIVYDYHMTLALAMGADFIMLGRYFARFEESPTRKVTINGSVMKEYWGEGSSRARNWQRYDLGGKQKLSFEEGVDSYVPYAGKLKDNVEASLNKVKSTMCNCGALTIPQLQSKAKITLVSSVSIVEGGAHDVIVKDRINDYHPK	soluble
